# Data: patent US20250114463A1, “LIVER-TARGETED DRUG AND USE THEREOF” (HANMI PHARM. CO., LTD., priority 2021, published 2025)
# Bridges are numbered along the chain shown (N, C = ends). Where no end group is shown, it is not given here. [ ]: non-standard residue; d: D form. Aib = CC(C)(N)C(=O)O
# T1: human GIP receptor (human, UniProt P48546 22-466)
# T1 sequence (looked up): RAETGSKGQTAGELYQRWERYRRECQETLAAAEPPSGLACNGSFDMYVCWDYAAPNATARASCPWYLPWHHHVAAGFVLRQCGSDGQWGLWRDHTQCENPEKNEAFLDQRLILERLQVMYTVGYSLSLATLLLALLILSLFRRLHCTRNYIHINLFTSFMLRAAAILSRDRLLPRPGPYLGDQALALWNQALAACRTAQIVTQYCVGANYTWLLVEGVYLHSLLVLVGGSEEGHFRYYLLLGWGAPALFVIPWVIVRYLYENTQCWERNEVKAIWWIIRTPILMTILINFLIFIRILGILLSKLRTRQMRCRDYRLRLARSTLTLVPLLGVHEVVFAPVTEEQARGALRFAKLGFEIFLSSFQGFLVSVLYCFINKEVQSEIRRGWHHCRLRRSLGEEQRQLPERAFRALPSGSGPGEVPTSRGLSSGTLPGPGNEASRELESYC
# How the values were obtained:
# Assay in all cases: cell-based or functional assay
# human GLP-1 receptor = human GLP-1 receptor (human, UniProt P43220 24-463)
# human GCG receptor = human GCG receptor (human, UniProt P47871 26-477)
# human GIP receptor = molecular target: T1, human GIP receptor
# human GCG receptor, sequence (P47871 26-477): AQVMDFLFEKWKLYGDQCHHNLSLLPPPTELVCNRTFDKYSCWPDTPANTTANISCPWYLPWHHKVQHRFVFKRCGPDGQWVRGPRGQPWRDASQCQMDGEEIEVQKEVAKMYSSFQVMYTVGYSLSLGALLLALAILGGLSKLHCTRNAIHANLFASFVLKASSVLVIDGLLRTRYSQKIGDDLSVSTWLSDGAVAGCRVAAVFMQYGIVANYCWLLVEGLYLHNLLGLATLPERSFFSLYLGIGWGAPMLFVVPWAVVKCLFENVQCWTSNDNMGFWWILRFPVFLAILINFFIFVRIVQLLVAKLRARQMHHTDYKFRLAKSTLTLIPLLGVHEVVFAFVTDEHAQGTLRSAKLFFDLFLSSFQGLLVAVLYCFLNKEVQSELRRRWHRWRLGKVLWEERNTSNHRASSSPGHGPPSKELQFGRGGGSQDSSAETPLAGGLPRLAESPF
Binder,"in vitro Activity Compared to Native Peptide (%), vs GLP-1 (human GLP-1 receptor) [%]","in vitro Activity Compared to Native Peptide (%), vs Glucagon (human GCG receptor) [%]","in vitro Activity Compared to Native Peptide (%), vs GIP (human GIP receptor) [%]"
H[Aib]QGTFTSDYSKYLDEKRQKEFVNWLLAQKC (bridge 16-20; not fully specified (C-terminus)) [triple agonist of SEQ ID NO: 34],19.1,0.92,0.6
HXQGTFTSDVSSYLDGQAAKEFIAWLVKGC (HELM PEPTIDE1{H.[Aib].Q.G.T.F.T.S.D.V.S.S.Y.L.D.G.Q.A.A.K.E.F.I.A.W.L.V.K.G.C.[am]}$$$$V2.0; N-terminus assumed; SMILES CC[C@H](C)[C@H](NC(=O)[C@H](Cc1ccccc1)NC(=O)[C@H](CCC(=O)O)NC(=O)[C@H](CCCCN)NC(=O)[C@H](C)NC(=O)[C@H](C)NC(=O)[C@H](CCC(N)=O)NC(=O)CNC(=O)[C@H](CC(=O)O)NC(=O)[C@H](CC(C)C)NC(=O)[C@H](Cc1ccc(O)cc1)NC(=O)[C@H](CO)NC(=O)[C@H](CO)NC(=O)[C@@H](NC(=O)[C@H](CC(=O)O)NC(=O)[C@H](CO)NC(=O)[C@@H](NC(=O)[C@H](Cc1ccccc1)NC(=O)[C@@H](NC(=O)CNC(=O)[C@H](CCC(N)=O)NC(=O)C(C)(C)NC(=O)[C@@H](N)Cc1c[nH]cn1)[C@@H](C)O)[C@@H](C)O)C(C)C)C(=O)N[C@@H](C)C(=O)N[C@@H](Cc1c[nH]c2ccccc12)C(=O)N[C@@H](CC(C)C)C(=O)N[C@H](C(=O)N[C@@H](CCCCN)C(=O)NCC(=O)N[C@@H](CS)C(N)=O)C(C)C) [triple agonist of SEQ ID NO: 1],3.2,< 0.1,< 0.1
H[Aib]QGTFTSDYSIAMDEIHQKDFVNWLLNTKC (bridge 16-20; not fully specified (C-terminus)) [triple agonist of SEQ ID NO: 35],7.5,< 0.1,1.3
XXQGTFTSDKSSYLDERAAQDFVQWLLDGGPSSGAPPPSS (HELM PEPTIDE1{[O=C(Cc1c[nH]cn1)[*:2]].[Aib].Q.G.T.F.T.S.D.K.S.S.Y.L.D.E.R.A.A.Q.D.F.V.Q.W.L.L.D.G.G.P.S.S.G.A.P.P.P.S.S.[am]}$$$$V2.0; SMILES CC(C)C[C@H](NC(=O)[C@H](CC(C)C)NC(=O)[C@H](Cc1c[nH]c2ccccc12)NC(=O)[C@H](CCC(N)=O)NC(=O)[C@@H](NC(=O)[C@H](Cc1ccccc1)NC(=O)[C@H](CC(=O)O)NC(=O)[C@H](CCC(N)=O)NC(=O)[C@H](C)NC(=O)[C@H](C)NC(=O)[C@H](CCCNC(=N)N)NC(=O)[C@H](CCC(=O)O)NC(=O)[C@H](CC(=O)O)NC(=O)[C@H](CC(C)C)NC(=O)[C@H](Cc1ccc(O)cc1)NC(=O)[C@H](CO)NC(=O)[C@H](CO)NC(=O)[C@H](CCCCN)NC(=O)[C@H](CC(=O)O)NC(=O)[C@H](CO)NC(=O)[C@@H](NC(=O)[C@H](Cc1ccccc1)NC(=O)[C@@H](NC(=O)CNC(=O)[C@H](CCC(N)=O)NC(=O)C(C)(C)NC(=O)Cc1c[nH]cn1)[C@@H](C)O)[C@@H](C)O)C(C)C)C(=O)N[C@@H](CC(=O)O)C(=O)NCC(=O)NCC(=O)N1CCC[C@H]1C(=O)N[C@@H](CO)C(=O)N[C@@H](CO)C(=O)NCC(=O)N[C@@H](C)C(=O)N1CCC[C@H]1C(=O)N1CCC[C@H]1C(=O)N1CCC[C@H]1C(=O)N[C@@H](CO)C(=O)N[C@@H](CO)C(N)=O) [triple agonist of SEQ ID NO: 38],2.3,,
H[Aib]QGTFTSDYSKYLDECRQKEFVQWLLNGGPSSGAPPPSG (bridge 16-20; not fully specified (C-terminus)) [triple agonist of SEQ ID NO: 37],236,6.21,2.2
H[Aib]QGTFTSDYSKYLCEKRQKEFVQWLLNGGPSSGAPPPSG (bridge 16-20; not fully specified (C-terminus)) [triple agonist of SEQ ID NO: 36],37.4,0.39,0.2
HXQGTFTSDYSKYLDGQHAQCFVAWLLAGGGPSSGAPPPS (HELM PEPTIDE1{H.[Aib].Q.G.T.F.T.S.D.Y.S.K.Y.L.D.G.Q.H.A.Q.C.F.V.A.W.L.L.A.G.G.G.P.S.S.G.A.P.P.P.S.[am]}$$$$V2.0; N-terminus assumed; SMILES CC(C)C[C@H](NC(=O)[C@H](CC(C)C)NC(=O)[C@H](Cc1c[nH]c2ccccc12)NC(=O)[C@H](C)NC(=O)[C@@H](NC(=O)[C@H](Cc1ccccc1)NC(=O)[C@H](CS)NC(=O)[C@H](CCC(N)=O)NC(=O)[C@H](C)NC(=O)[C@H](Cc1c[nH]cn1)NC(=O)[C@H](CCC(N)=O)NC(=O)CNC(=O)[C@H](CC(=O)O)NC(=O)[C@H](CC(C)C)NC(=O)[C@H](Cc1ccc(O)cc1)NC(=O)[C@H](CCCCN)NC(=O)[C@H](CO)NC(=O)[C@H](Cc1ccc(O)cc1)NC(=O)[C@H](CC(=O)O)NC(=O)[C@H](CO)NC(=O)[C@@H](NC(=O)[C@H](Cc1ccccc1)NC(=O)[C@@H](NC(=O)CNC(=O)[C@H](CCC(N)=O)NC(=O)C(C)(C)NC(=O)[C@@H](N)Cc1c[nH]cn1)[C@@H](C)O)[C@@H](C)O)C(C)C)C(=O)N[C@@H](C)C(=O)NCC(=O)NCC(=O)NCC(=O)N1CCC[C@H]1C(=O)N[C@@H](CO)C(=O)N[C@@H](CO)C(=O)NCC(=O)N[C@@H](C)C(=O)N1CCC[C@H]1C(=O)N1CCC[C@H]1C(=O)N1CCC[C@H]1C(=O)N[C@@H](CO)C(N)=O) [triple agonist of SEQ ID NO: 39],13.9,0.53,< 0.1
HXQGTFTSDVSSYLLGQQQKEFIAWLVKGC (HELM PEPTIDE1{H.[Aib].Q.G.T.F.T.S.D.V.S.S.Y.L.L.G.Q.Q.Q.K.E.F.I.A.W.L.V.K.G.C.[am]}$$$$V2.0; N-terminus assumed; SMILES CC[C@H](C)[C@H](NC(=O)[C@H](Cc1ccccc1)NC(=O)[C@H](CCC(=O)O)NC(=O)[C@H](CCCCN)NC(=O)[C@H](CCC(N)=O)NC(=O)[C@H](CCC(N)=O)NC(=O)[C@H](CCC(N)=O)NC(=O)CNC(=O)[C@H](CC(C)C)NC(=O)[C@H](CC(C)C)NC(=O)[C@H](Cc1ccc(O)cc1)NC(=O)[C@H](CO)NC(=O)[C@H](CO)NC(=O)[C@@H](NC(=O)[C@H](CC(=O)O)NC(=O)[C@H](CO)NC(=O)[C@@H](NC(=O)[C@H](Cc1ccccc1)NC(=O)[C@@H](NC(=O)CNC(=O)[C@H](CCC(N)=O)NC(=O)C(C)(C)NC(=O)[C@@H](N)Cc1c[nH]cn1)[C@@H](C)O)[C@@H](C)O)C(C)C)C(=O)N[C@@H](C)C(=O)N[C@@H](Cc1c[nH]c2ccccc12)C(=O)N[C@@H](CC(C)C)C(=O)N[C@H](C(=O)N[C@@H](CCCCN)C(=O)NCC(=O)N[C@@H](CS)C(N)=O)C(C)C) [triple agonist of SEQ ID NO: 4],8.5,< 0.1,< 0.1
